Experimental data from patent publication WO2025026282A1 (dated 2025).
Where a chain is given by its changes, count along the chain named. Names may count otherwise.

Experiments:
Human PD-L1 = biological target: T1, Human PD-L1 (human, UniProt Q9NZQ7 19-238, limits assumed); assay: BLI (Octet R8), human PD-L1
T1 construct: Diluted to 2 ug/ml in KB buffer for BLI; construct not described

human CD3 epsilon = biological target: T2, human CD3 epsilon (human, UniProt P07766 23-126, limits assumed); assay: SPR (Biacore), antigen captured, antibody as analyte
T2 construct: the same molecule is used here for both
T2 sequence (P07766 23-126 limits assumed): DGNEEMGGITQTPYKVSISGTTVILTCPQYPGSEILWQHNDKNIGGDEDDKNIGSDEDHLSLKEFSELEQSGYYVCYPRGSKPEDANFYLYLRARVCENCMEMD

human CD64 = human CD64 (human, UniProt P12314 16-292, limits assumed); assay: BLI (Octet), human CD64
human CD64, sequence (P12314 16-292 limits assumed): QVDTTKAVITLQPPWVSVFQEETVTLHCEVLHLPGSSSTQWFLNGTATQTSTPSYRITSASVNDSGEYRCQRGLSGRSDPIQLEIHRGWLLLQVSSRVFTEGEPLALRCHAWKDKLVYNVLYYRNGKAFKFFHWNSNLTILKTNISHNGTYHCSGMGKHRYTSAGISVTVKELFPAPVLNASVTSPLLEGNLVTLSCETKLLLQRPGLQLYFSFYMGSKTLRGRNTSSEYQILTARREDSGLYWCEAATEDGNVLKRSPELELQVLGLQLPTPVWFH

human CD32 alpha = biological target: T3, human CD32 alpha (human, UniProt P12318 34-217, limits assumed); assay: BLI (Octet), human CD32 alpha
T3 construct: also called FcgammaRII
T3 sequence (looked up): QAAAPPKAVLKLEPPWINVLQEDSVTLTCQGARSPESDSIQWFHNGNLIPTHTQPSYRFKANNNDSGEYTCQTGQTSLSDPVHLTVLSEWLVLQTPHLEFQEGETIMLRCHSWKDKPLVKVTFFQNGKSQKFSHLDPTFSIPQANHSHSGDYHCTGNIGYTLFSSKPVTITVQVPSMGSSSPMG

T1 sequence (Q9NZQ7 19-238 limits assumed): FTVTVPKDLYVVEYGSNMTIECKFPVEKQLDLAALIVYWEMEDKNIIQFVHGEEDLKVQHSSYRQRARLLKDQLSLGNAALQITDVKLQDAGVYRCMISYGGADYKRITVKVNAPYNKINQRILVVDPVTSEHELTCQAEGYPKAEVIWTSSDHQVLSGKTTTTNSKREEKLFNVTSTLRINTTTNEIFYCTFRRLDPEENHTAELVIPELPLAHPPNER

B1: 12A69 (other)
chain 1: QAVVTQEPSLTVSPGGTVTLTCRSSTGAVTTSNYANWVQQKPGQAPRGLIGGTNKRAPWTPARFSGSLLGGKAALTLSGAQAEDEADYYCALWYSNLWVFGGGTKLTVLRTVAAQVQLVQSGAEVKKPGSSVKVSCKTSGDTFSSYAISWVRDAPGQCLEWMGGIIPIFGKAHYAQKFQGRVTITADESTSTAYMELSSLRSEDTAVYFCARKFHFVSGSPFGMDVWGQGTTVTVSSASEPKSSDKTHTCPPCPAPPVAGPSVFLFPPKPKDTLMISRTPEVTCVVVDVSQEDPEVKFNWYVDGVEVHNAKTKPREEQFNSTYRVVSVLTVLHQDWLNGKEYKCKVSNKGLPSSIEKTISKAKGQPREPQVYTLPPSRDELTKNQVSLWCLVKGFYPSDIAVEWESNGQPENNYKTTPPVLDSDGSFFLYSKLTVDKSRWQQGNVFSCSVMHEALHNHYTQKSLSLSP
chain 2: EVQLVESGGGLVQPGGSLRLSCAASGFTFTDYYMNWVRQAPGKALEWLGFIRNKVNGDTTEYAASVKGRFTISRDDSKNSLYLQMNSLKTEDTAVYYCARDKGIAYYFDYWGQGTLVTVSSASTKGPSVFPLAPSSKSTSGGTAALGCLVKDYFPEPVTVSWNSGALTSGVHTFPAVLQSSGLYSLSSVVTVPSSSLGTQTYICNVNHKPSNTKVDKKVEPKSCDGGGGSGGGGSEIVLTQSPATLSLSPGERATLSCRASQSVSSYLAWYQKKPGQAPRLLIYDASNRATGIPARFSGSGSGTDFTLTISSLEPEDFAVYYCQQRSNAPTFGCGTKVEIKRTVAAEVQLVESGGGLVQPGGSLRLSCAASGFTFSTYAMNWVRQAPGKGLEWVGRIRSKYNNYATYYADSVKGRFTISRDDSKNSLYLQMNSLRAEDTAVYYCVRHGNFGTSYVSWFAYWGQGTLVTVSS
chain 3: EVQLVESGGGLVQPGGSLRLSCAASGFTFTDYYMNWVRQAPGKALEWLGFIRNKVNGDTTEYAASVKGRFTISRDDSKNSLYLQMNSLKTEDTAVYYCARDKGIAYYFDYWGQGTLVTVSSASTKGPSVFPLAPSSKSTSGGTAALGCLVKDYFPEPVTVSWNSGALTSGVHTFPAVLQSSGLYSLSSVVTVPSSSLGTQTYICNVNHKPSNTKVDKKVEPKSCDKTHTCPPCPAPPVAGPSVFLFPPKPKDTLMISRTPEVTCVVVDVSQEDPEVKFNWYVDGVEVHNAKTKPREEQFNSTYRVVSVLTVLHQDWLNGKEYKCKVSNKGLPSSIEKTISKAKGQPREPQVYTLPPSRDELTKNQVSLSCAVKGFYPSDIAVEWESNGQPENNYKTTPPVLDSDGSFFLVSKLTVDKSRWQQGNVFSCSVMHEALHNRFTQKSLSLSP
chain 4: EIVLTQSPATLSASPGERATLSCRASQSVSYIHWYQQKPGQSPRPWIHGTSNLATGVPARFSGSGSGTDFTLTISSLEPEDAAVYYCQQWSSNLSTFGGGTKVEIKRTVAAPSVFIFPPSDEQLKSGTASVVCLLNNFYPREAKVQWKVDNALQSGNSQESVTEQDSKDSTYSLSSTLTLSKADYEKHKVYACEVTHQGLSSPVTKSFNRGEC
Question: How did the Kd (Human PD-L1) turn out when B1 was run?
Answer: 72.8 nM

B2: 12A44 (other)
chain 1: B1 chain 1
chain 2: B1 chain 2 with A329W, K400Q
chain 3: B1 chain 3
chain 4: B1 chain 4
Question: How did the Kd (human CD3 epsilon) turn out when B2 was run?
Answer: 118 nM

B3: 12A39 (2:1:1 asymmetric tri-specific antibody, Type E structure, CEA x CD3 x PD-L1) (other)
chain 1: B1 chain 1
chain 2: B1 chain 2 with A329W
heavy: B1 chain 3
light: B1 chain 4
notes: Tri-specific antibody; also called polypeptide complex 12A39
Question: Does B3 bind (human CD64)?
Answer: binds

Question: What about the Kd (human CD32 alpha) of the same binder?
Answer: ~527 nM

B4: 12A46 (other)
chain 1: B1 chain 1
chain 2: B1 chain 2 with A329W, V455A
heavy: B1 chain 3
light: B1 chain 4
notes: Kabat position; choice of chain inferred; also called V100C A (12A46)
Question: How did the Kd (human CD3 epsilon) turn out when B4 was run?
Answer: 176 nM
